Consider two molecules from patent publication US10654917B2, “Antibody molecules and peptide delivery systems for use in alzheimer's disease and related disorders” (TECHNOPHAGE, INVESTIGAÇĀO E DESENVOLVIMENTO EM …, priority 2015, dated 2020).

“And” between values parts separate entries of the source, which are not always exact repeats. Equal entries are not always repeated.

Series [1] deals with in vitro model of the BBB (bEnd3 cells). Kind of series: Transmigration of radiolabelled peptides across in vitro BBB model. Format: in vitro ADME. How it is done:
Using the same in vitro model of the BBB described above, peptides labelled with technetium and gallium were tested for the ability to cross endothelial barrier. For each peptide, bEnd3 cells cultured on “tissue culture inserts” were incubated with 5 ρCimL^−1-labelled peptide for different incubation times: 15 min, 5 h and 24 h. As a control, the model without cells was used (Control no cells) or (Filters) and compared to models with cells (BBB) or (Cells).
FIGS. 21A-21F show the percent activity of the radioisotope technetium-labelled peptides at the apex and base after 5 hours of incubation with the in vitro model described above, using the BBB-model or no cells (as a control); and values were obtained from two independent assays. […] Moreover, the results indicated promising candidates. Specifically, for each of pepH1 and pepH3, there was an overpass of 50% in the control, compared with only 20% in the presence of a cell barrier. The translocation of pepH2 was not observed in either the control nor in the BBB model.
Results for the incubations of 15 minutes, 5 hours, and 24 hours are shown together in FIGS. 22A-22F. That is, FIGS. 22A-22F show the percent activity of the radioisotope technetium-labelled peptides at the apex and base after 15 minutes, 5 hours, and 24 hours of incubation with the in vitro model described above, using the BBB-model or no cells (as a control); and values were obtained from two independent assays. Differences again were observed, confirming the integrity of the barrier, as well as identifying peptides that crossed the barrier. […] PepR′ thus was excluded from further tests.
(§1) Table 9 summarizes results regarding uptake (internalization) and cellular interaction, as well as transmigration across an in vitro model for BBB, for peptides labelled with technetium and gallium, after 15 minutes, 5 hours, and 24-hours of incubation, based on percent recovery of radiopeptide. The Table lists the peptides, providing each peptide's name, % BBB transmigration, % cellular interaction, and % internalized, each after […], 5 hours, and 24 hours of incubation.

The nature of series [2]: Partition coefficient Kp by intrinsic trp fluorescence. Format: physicochemical. How it is done:
For the pepH3, the “partition coefficient” or “affinity constant” also was determined, since this peptide intrinsically presents a tryptophan and, thus, successful administrations of the lipid compositions allowed determination of pepH3's affinity constant.
PepH2 and pepH3 are the most hydrophobic peptides (Po/w). In addition, pepH2 interacts with various lipid compositions of membrane models, while pepH3 only interacts with membranes rich in PS (a negatively charged phospholipid).

Series [3] is described as follows: Stability in blood and urine after injection, HPLC. Format: in vivo, mice. The settings on record: 5 and 60 minutes following injection. On the procedure:
Finally, stability of the peptides was determined. Urine and blood were taken from the animals after death, filtered, and analyzed by RT-HPLC. HPLC analysis was conducted to assess the stability of pepH1 and pepH3 peptides in blood and urine, 5 and 60 minutes post-administration, compared to the respective original preparations.
FIGS. 28A-28D show the profile of pepH1 and pepH3 each in its original preparation, prior to injection into the animals, and then after 5 and 60 minutes following injection in the blood and urine.

A short description of series [4]: Features of peptides: isoelectric point, charge. The series is classed as physicochemical. Particulars: original peptide. The source says:
Table 7 lists each peptide's name, isoelectric point (PI), charge (number of positive residues), calculated mass (in Da), and ion found; as well as the name, calculated mass, and found ion for the corresponding conjugate; and also retention times in HPLC and the partition coefficient (log Po/w). These values allowed the determination of the hydrophilic nature of peptides, where pepH1 and pepH4 were identified as the most hydrophilic peptides.

Series [5] can be described thus: Biodistribution of technetium-labelled peptides. The series is classed as in vivo, CD1 mice. Summed up:
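CD1 mice received technetium-labelled peptide (8.5×10^−5 M final labelling concentration, in PBS) by tail-vein iv injection; in a repeat study dose was raised one hundred fold. Organs were dissected, washed, weighed and counted at 5 and 60 min, or 2 and 60 min in the repeat, as % injected activity or per gram tissue.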

Series [6] has as its system bEnd3 cells. Kind of series: Uptake test: cellular interaction (acid wash) and internalization (lysate). The series is classed as cell-based. How it is done:
In addition to testing models of BBB, an uptake test was performed to determine the internalizing ability of the candidate peptides. BEnd3 cells were cultured in 24 well plates. At each time point, the medium containing the peptide, which had not interacted with the cells, was collected. In the next step, the cells were washed with an acidic buffer that releases peptides more strongly bound to the cell membrane (sample acid wash). Finally, the cells were lysed to release internalized peptides and to quantify the activity inside the cells. Results are showing in FIGS. 23A-23E.
FIGS. 23A-23E show percent activity of the radioisotope technetium-labelled peptides in the media, wash buffer (acid wash) and lysate, after 15 minutes, 5 hours, and 24 hours of incubation with bEnd3 cells; and values were obtained from two independent assays. […] PepM′, as well as showing high transmigration (about 50%), also appeared to become internalized and accumulated within the cells (about 13% of radioactivity in the lysate).
as §1

In series [7] the target is T1, BAP42 (Homo sapiens, UniProt P05067).
T1 construct: “beta-amyloid peptide 42”, or “beta-amyloid peptide 1-42”
T1 sequence (P05067 672-713 limits assumed): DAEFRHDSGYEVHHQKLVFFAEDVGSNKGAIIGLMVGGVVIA
Kind of series: Thioflavin T assay of BAP42 aggregation inhibition. The series is classed as biochemical. The settings on record: proportions 1:5 and 1:20 sdAb:BAP42. On the procedure: Once purified and verified in recognizing BAP42 oligomers, anti-oligomer antibodies were purified were tested for their ability to inhibit aggregation of the peptide to fibrillar forms. This assay was performed using the thioflavin T (ThT), which, as discussed above, is a probe that recognizes rich “beta-sheet” secondary structures, the structure indeed characteristic of fibrillar BAP42. Accordingly, the greater aggregation inhibition by a candidate anti-oligomer sdAb, the less fibrils formed, and thus the smaller the signal emitted by ThT during the assay. Other selected anti-oligomer sdAbs show similar aggregation inhibition.
Anti-oligomers also were tested for their ability to inhibit aggregation of BAP42. This assay was performed using Thioflavin T (ThT), which, as described above, recognizes beta-sheet rich structures, characteristic of fibrillar form of BAP42, so that the ability of sdAbs to inhibit aggregation can be assessed. Specifically, the more aggregation is inhibited, the smaller the signal emitted by ThT. Two proportions were tested, namely, 1:5 (one molecule for sdAb for every 5 BAP42 molecules) and 1:20 (one molecule for sdAb for every 20 BAP42 molecules).

With “AGILKRW (Dengue virus 2; /note=“#PepH3 (PEP+)”)”, the BBB transmigration in series [1] (99mTc, 0.25 hours) is 2.70 ± 0.0%; in series [1] (99mTc, 5 hours), 9.16 ± 6.5%; in series [1] (99mTc, 5 hours, listed as pepH3) it was 20%; in series [1] (99mTc, 24 hours), 67.23 ± 1.2%; in series [1] (99mTc, 24 hours, listed as pepH3), “about 70%”; in series [1] (GaCl3, 0.25 hours), 1.87 ± 0.3%. The BBB transmigration in series [1] (GaCl3, 5 hours) is reported as 26.47 ± 0.4%; in series [1] (GaCl3, 24 hours) it was 72.63 ± 0.7%. Moreover, the “overpass in the control (no cells)” value in series [1] (99mTc, 5 h, no cells) came out at 50%. In series [2], the “affinity constant for POPC:POPS (1:4) relative to other lipid compositions” value is 5 times. The “Kp ± SD” value is 1,558 and 1,558 ± 216 in series [2] (Lipidic membrane POPC:POPS (1:4)); 455 ± 46 in series [2] (Lipidic membrane POPC:POPS (3:2)); 324 and 342 ± 102 in series [2] (Lipidic membrane POPC:POPS (4:1)). Also, the “stability in blood and urine” value in series [3] is “stable in the blood and urine”. Besides, the “Charge (number of positive residues)” value in series [4] stood at 2. Further, the “PI (isoelectric point)” value in series [4] is on record as 11. In addition, the “radioactivity in the brain” value in series [5] (140 μg (pepH1, pepH3) or 80 μg (pepH2), 2 min) was 0.31% and 0.37%. In series [5] (140 μg (pepH1, pepH3) or 80 μg (pepH2), after 60 min), this molecule registered an excreted of 36%. The brain uptake entry in series [5] (after 2 min) is “rapid brain uptake”. Besides, the brain washout result in series [5] (mouse, in vivo) was “rapid brain washout”. Moreover, the “where the radiopeptide is found in the uptake test (media, acid wash, lysate)” value in series [6] (99mTc) is listed as “mainly remained in the incubation medium”. Further, the Cellular interaction in series [6] (99mTc, 0.25 hours) is reported as 1.50 ± 0.1%; in series [6] (99mTc, 5 hours), 1.15 ± 0.1%; in series [6] (99mTc, 24 hours), 0.60 ± 0.1%; in series [6] (GaCl3, 0.25 hours), 0.26 ± 0.0%; in series [6] (GaCl3, 5 hours), 0.73 ± 0.0%; in series [6] (GaCl3, 24 hours), 0.60 ± 0.1%. Moreover, the Internalization was determined as 0.15 ± 0.1% in series [6] (99mTc, 0.25 hours); 0.15 ± 0.1% in series [6] (99mTc, 5 hours); 0.35 ± 0.2% in series [6] (99mTc, 24 hours); 0.03 ± 0.0% in series [6] (GaCl3, 0.25 hours); 0.12 ± 0.0% in series [6] (GaCl3, 5 hours); 0.30 ± 0.1% in series [6] (GaCl3, 24 hours).

B1: FC5: sdAb from the literature binding BBB receptors; positive control for BBB transmigration, SEQ ID NO: 112 (protein, listed as Lama glama)
VHH: ASEVQLQASGGGLVQAGGSLRLSCAASGFKITHYTMGWFRQAPGKEREFVSRITWGGDNTFYSNSVKGRFTISRDNAKNTVYLQMNSLKPEDTADYYCAAGSTSTATPLRVDYWGKGTQVTVSSLE
modifications: /note=“#FC5”
Consider B1, for which the “inhibition of BAP42 fibrillization (ThT signal)” value in series [7] is given as “do not inhibit fibrillization”.
